Laboratory results: patent publication US20230061804A1

Biological target: mRFP1-ENLYFQS-(r8)8-Tail
Test: live imaging of co-transfected HaCATs; client signal inside against outside KG-like granules

In the case of sfGFP-dTEVP, the partition coefficient (P) is reported as 2.1.
